Test results taken from patent US20120093811A1 (published 2012).

T1: Source 1 VEGF-D, mature dimeric recombinant human VEGF-D (CSIRO) (human, UniProt O43915 89-205)
T1 sequence: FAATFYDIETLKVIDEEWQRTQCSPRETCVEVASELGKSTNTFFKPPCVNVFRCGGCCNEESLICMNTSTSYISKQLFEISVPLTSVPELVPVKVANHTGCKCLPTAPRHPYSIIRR

T2: Source 2 VEGF-D, purified recombinant human VEGF-D monomer (R&D Systems, Catalog Number 622-VD/CF) (human, UniProt O43915 93-201)
T2 sequence: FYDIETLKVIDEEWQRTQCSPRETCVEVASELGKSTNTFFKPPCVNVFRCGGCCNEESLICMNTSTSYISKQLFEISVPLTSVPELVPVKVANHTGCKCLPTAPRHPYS


Columns and labels:
[1] = biological target: T1, Source 1 VEGF-D, mature dimeric …; assay: cell-based or functional assay
[2] = biological target: T2, Source 2 VEGF-D, purified recombinant …; assay: cell-based or functional assay
[3] = biological target: T2, Source 2 VEGF-D, purified recombinant …; assay: SPR, KD against that of Ig-1A
[4] = biological target: T2, Source 2 VEGF-D, purified recombinant …; assay: SPR, IgG captured by anti-human IgG (Fc), Source 2 VEGF-D monomer as analyte
[5] = biological target: T1, Source 1 VEGF-D, mature dimeric …; assay: SPR Protocol B: VEGF-D dimer amine-coupled, IgG as analyte
Protocol: (§1) Protocol B: In the second assay format, Protocol B, the orientation of the IgGs and the VEGF-D antigen was reversed relative to Protocol A. The Source 1 VEGF-D dimer was immobilized directly on the chip surface by amine coupling and the murine anti-VEGF-D monoclonal antibody, Ig-1A or IgG variants flowed over this surface as analytes at concentrations of 4 nM, 1.33 nM, and 0.44 nM. This protocol allowed avidity effects to be controlled by reducing the density of dimeric VEGF-D immobilized on the chip and in effect reduce the bivalent binding properties of the system being analyzed.
(§2) All four flow cells on a CM5 chip were activated for 7 min at 25° C. using a mixture of NHS.EDC. Flow cell one was used as an unmodified (activated and blocked) reference against flow cells 2-4. Source 1 VEGF-D dimer was diluted to 1-3 μg/ml into 10 mM sodium acetate, pH 4, and injected over three surfaces for different lengths of time to achieve low ligand densities of 10, 15 and 20 RU to minimize avidity effects of the IgG. All surfaces were blocked for 7 min with ethanolamine (1M, pH 8.2) and pre-conditioned using five 10 s injections of 100 mM H₃PO₄; 1M NaCl. Immobilization steps were carried out at a flow rate of 30 μl/min using HBS-N running buffer.
(§3) All IgG binding experiments were performed at 25° C. using HBS-EP+ running buffer. Analytes (murine reference anti-VEGF-D monoclonal antibody and humanized variants) were injected for 200 s at a flow rate of 70 μl/min and dissociation monitored for 250 s. The antigen surfaces were regenerated with a 10 s pulse of 100 mM H₃PO₄; 1M NaCl. Analyte concentrations used for murine and humanized variants were 4 nM, 1.33 nM, and 0.44 nM. Data was processed using the reference surface and double referencing from blank injections. Binding constants for the IgG/antigen interactions were determined from the three antigen surfaces globally fitted to a 1:1 interaction model. Refractive index parameter was constant (RI=0).

[6] = biological target: T1, Source 1 VEGF-D, mature dimeric …; assay: SPR Protocol B, KD against that of Ig-1A
Protocol: as §1, §2, §3

[7] = biological target: T1, Source 1 VEGF-D, mature dimeric …; assay: SPR Protocol A: IgG captured by anti-human Fc, VEGF-D dimer as analyte
Protocol: (§4) Protocol A: The first assay format, Protocol A, used an assay system where IgGs were captured on a biosensor chip surface using an anti-human IgG (Fc) antibody and the Source 1 VEGF-D dimer run over the chip as the analyte in solution. This ensured that all IgG molecules were presented to the antigen in an active orientation.
(§5) The SPR protocol was slightly modified to compensate for the dimeric nature of the VEGF-D. Ig-1A or IgG variants were analyzed using an anti-human capture kit as described for Anti-human IgG (Fc) capture above, except that 1000 RU of the IgG or IgG variant was captured on the anti-human chip surface. […] The kinetics generated using this approach are accurate within the experimental parameters set. This standard assay protocol is best suited to studying 1:1 interactions and thus, may not be ideal for analyzing binding between the IgG variants and the VEGF-D dimer. In light of this, Protocol B was also used.

[8] = biological target: T1, Source 1 VEGF-D, mature dimeric …; assay: SPR Protocol A, KD against that of Ig-1A
Protocol: as §4, §5

| rank in the VEGFR-3-Ba/F3 bioassay [1] [rank] | rank in the VEGFR-3-Ba/F3 bioassay [2] [rank] | Fold-improvement with respect to Ig-1A [3] [fold] | Kd [4] [nM] | koff [4] [s⁻¹] | Kd [5] [nM] | koff [5] [s⁻¹] | kon [5] [M⁻¹ s⁻¹] | Fold-improvement with respect to Ig-1A [6] [fold] | Kd [7] [nM] | koff [7] [s⁻¹] | kon [7] [M⁻¹ s⁻¹] | Fold-improvement with respect to Ig-1A [8] [fold] | kon [4] [M⁻¹ s⁻¹] | Binder |
| --- | --- | --- | --- | --- | --- | --- | --- | --- | --- | --- | --- | --- | --- | --- |
| 3 | 3 | – | – | – | 0.33 | 0.001 | 3e+06 | 5.3 | 0.201 | 7.7e-05 | 390000 | 3.5 | – | humanized IgG antibody derived from clone HH69 (antibody, V domains shown, IgG) VH: QVQLVQSGAKVKQPGASVKASCKASGYTFTGYNMYWVRQAPGQGLEWMGYIDPYSGDTTYNQKFKGRVTMTTDTSTSTAYMELRSLRSDDTAVYYCARTSYYGGMDYWGRGTLVTVAS VL: DIVMTQTPLSGPVTLGQPASISCRSSQSLVHSNGNTYLHWLQQRPGQPPRLLIYKVSNRFSGVPDRFSGSGAGTDFTLKISRVEAEDVGVYYCSQSTHVPRTFGRGTKLEIKR |
| 8 | 6 | – | – | – | 0.36 | 0.0017 | 4.7e+06 | 4.9 | 0.364 | 0.00019 | 530000 | 1.9 | – | humanized IgG antibody derived from clone HH41 (antibody, V domains shown, IgG; also called HH41#1; HH41#2) VH: QVQLVQSGAEVKQPGASVKVSCKASGYTFTGYNMYWVRQAPGQGLEWMGYIDPYNGDTTYNQKFKGRVTMTTDTSTSTAYMKLRSLRSDDTAVYYCARTSYYGGMDYWGRGTLVTVAS VL: DIVMTQTPLSSPVTLGQPASISCRSSQSLVHGNGNTYLHWLQQRPGQPPRLLIYKVSNRFSGVPDRFSGSGAGTDFTLKISRVEAEDVGVYYCSQSTHVPRTFGQGTKLEIKR |
| 4 | 7 | – | – | – | 0.32 | 0.0018 | 5.4e+06 | 5.5 | 0.342 | ~0.00018 | 510000 | 2 | – | humanized IgG antibody derived from clone HW78 (antibody, V domains shown, IgG) VH: QVQLVQSGAEVKQPGASVKVSCKARGYTFTGYNMYWVRQAPGQGLEWMGYIDPYNGDTTYNQKFKGRVTMTTDTSTGTAYMKLRSLRSDDTAVYYCARTSYYGGMDYWGRGTLVTVAS VL: DIVMTQTPLSSPVTLGQPASISCRSSQSLVHSNGNTYLHWLQQRPGQPPRLLIYKVSNRFSGVPDRFSGSGAGTDFTLKISRVEAEDVGVYYCSQSTHVPRTFGQGTKLEIKR |

The next lines start with the binder.

| Binder | rank in the VEGFR-3-Ba/F3 bioassay [1] [rank] | rank in the VEGFR-3-Ba/F3 bioassay [2] [rank] | Fold-improvement with respect to Ig-1A [3] [fold] | Kd [4] [nM] | koff [4] [s⁻¹] | Kd [5] [nM] | koff [5] [s⁻¹] | kon [5] [M⁻¹ s⁻¹] | Fold-improvement with respect to Ig-1A [6] [fold] | Kd [7] [nM] | koff [7] [s⁻¹] | kon [7] [M⁻¹ s⁻¹] | Fold-improvement with respect to Ig-1A [8] [fold] | kon [4] [M⁻¹ s⁻¹] |
| --- | --- | --- | --- | --- | --- | --- | --- | --- | --- | --- | --- | --- | --- | --- |
| humanized IgG antibody derived from clone F61 (antibody, V domains shown, IgG) VH: QVQLVQSGAEVKQPGASVKVSCKASGYTFTGYNMYWVRQAPGQGLEWMGYIDPYNGDTTYNQKFKGRVTMTTDTSTSTAYMKLRSLRSDDTAVYYCARTSYYGGMDYWGRGTLVTVAS VL: DIVMTQTPLSSPVTLGQPASISCRSSQSLVHSNGNTYLHWLQQRPGQPPRLLIYKVSNRFSGVPDRFSGSGAGTDFTLKISRVEAEDVGVYYCSQSTHVPRTFGQGTKLEIKR | 5 | 8 | 1.8 | 5 | 0.00824 | – | – | – | – | – | – | – | – | – |
| humanized IgG antibody derived from clone DI26 (antibody, V domains shown, IgG) VH: QVQLVQSGAKVKQPGASVKASCKASGYTFTGYNMYWVRQAPGQGLEWMGYIDPYSGDTTYNQKFKGRVTMTTDTSTSTAYMELRSLRSDDTAVYYCARTSYYGGMDYWGRGTLVTVAS VL: DIVMTQTPLSSPVTLGQPASISCRSSQSLVHSNGNTYLHWLQQRPGQPPRLLIYKVSNRFSGVPDRFSGSGAGTDFTLKISRVEAEDVGVYYCSQSTHVPRTFGQGTKLEIKR | 2 | 2 | 2.2 | 4.1 | 0.0041 | 0.88 | 0.0012 | 1.3e+06 | 2 | 0.699 | 0.00039 | 560000 | 1 | 1e+06 |
| humanized IgG antibody derived from clone A63 (antibody, V domains shown, IgG) VH: QVQLVQSGAKVKQPGASVKASCKASGYTFTGYNMYWVRQAPGQGLEWMGYIDPYNGDTTYNQKFKGRVTMTTDTSTSTAYMELRSLRSDDTAVYYCARTSYYGGMDYWGRGTLVTVAS VL: DIVMTQTPLSSPVTLGQPASISCRSSQSLVHSNGNTYLHWLQQRPGQPPRLLIYKVSNRFSGVPDRFSGSGAGTDFTLKISRVEAEDVGVYYCSQSTHVPRTFGQGTKLEIKR | – | – | 1.3 | 7 | 0.00677 | – | – | – | – | – | – | – | – | 970000 |
| humanized IgG antibody derived from clone AW61 (antibody, V domains shown, IgG) VH: QVQLVQSGAEVKQPGASVKVSCKASGYTFTGYNMYWVRQAPGQGLEWMGYIDPYNGDTTYNQKFKGRATMTTDTSTSTAYMKLRSLRSDDTAVYYCARTSYYGGMDYWGRGTLVTVAS VL: DIVMTQTPLSSPVTLGQPASISCRSSQSLVHSNGNTYLHWLQQRPGQPPRLLIYKVSNRFSGVPDRFSGSGAGTDFTLKISRVEAEDVGVYYCSQSTHVPRTFGQGTKLEIKR | 6 | 4 | 2.2 | 4.1 | 0.00725 | – | – | – | – | – | – | – | – | – |
